From the supplement of paper PMC12764529
± gives the half width of the 95% confidence interval.

Legend:
[1] = folding stability dG unfold from trypsin proteolysis; higher = more stable
Summary of the method: (§1)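 Unfolding free energy was derived, per protease or combined, by relating Bayesian-fitted K50 values from sequencing counts to a sequence-predicted unfolded-state K50 and a shared folded-state K50. The underlying digests exposed cysteine-free mini-proteins under 80 residues, in a PA-tagged cDNA display construct, to trypsin and chymotrypsin at 11 threefold-diluted concentrations and to a no-protease condition. A filter kept only designs with AlphaFold2 dimer inter-PAE above 15.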

[2] = folding stability dG unfold (combined trypsin and chymotrypsin); higher = more stable
Summary of the method: as §1

[3] = folding stability dG unfold from chymotrypsin proteolysis; higher = more stable
Summary of the method: as §1

Sequence | folding stability dG unfold [1] [kJ/mol] | folding stability dG unfold [2] [kJ/mol] | folding stability dG unfold [3] [kJ/mol]
SAGGSAGGKPKPVLRTFEVRDPATGELYKVELVVLDDGSVRALVTRRDGRKREFTFDAPASLILSAGGSAGG [r6_588_TrMRF] | 6.67 ± 0.0795 | 7.85 ± 0.197 | 8.69 ± 0.176
SAGGSAGGKRKIEIHIIIPPGMPPEWRKKAIEIAKWFAKTLAQENNREVEIKIEIFVLDGMPPWSAGGSAGG [r6_204_TrROS] | 11.8 ± 0.795 | 15.1 ± 1.38 | 15.5 ± 0.318
SAGGSAGGKRTVQIQFPMGPQWLDKLRDAFPNVDIEELEYDEGPGWHRIKIKVDSPEKIRDFIKSAGGSAGG [r6_334_TrROS] | 2.63 ± 0.795 | 4.15 ± 0.753 | 5.9 ± 0.331
SAGGSAGGKTISIPGSIEEIQEKLGGPIDEVEHNKPGSGSYKPKNGKPITIHFDSPEDILDFFKSAGGSAGG [r6_19_TrROS] | 1.33 ± 0.134 | 0.863 ± 0.502 | -0.315 ± 0.628
SAGGSAGGKTIVIDMSIEEIAKKLGLEIVEVKKNKDGSVTITLKNGKKITIKVKSPEDLLKAIKSAGGSAGG [r6_13_TrROS_Hall] | 6.9 ± 0.46 | 10.6 ± 1.21 | 12.7 ± 0.628
SAGGSAGGKTYIVKIVVKNKNGEELELTLEVETEEEAKEAAEELAKKLEEAGYEIVKVEIKKLPSAGGSAGG [r6_869_TrROS_Hall] | 15.2 ± 1.13 | 16.8 ± 0.837 | 17.2 ± 0.586
SAGGSAGGKVKFEIPNAKITSVEYDPNPGLLKVEFELPNGLKLTAIFKIDKDKAILAKIEISPESAGGSAGG [r6_718_TrMRF] | 10.8 ± 0.297 | 13.5 ± 0.339 | 14.7 ± 0.188
SAGGSAGGLEIAKELGFEKIEIEEVKENRVVLKLKDKNGKEYKIEFEFDPETGEIKILKIEPLPSAGGSAGG [r6_526_TrMRF] | 13 ± 0.879 | 17.2 ± 0.544 | 17.5 ± 0.418
SAGGSAGGLKEALKLAEELGAKPHVVKTKGNSEIVFLELKDGRKIRLLVENGKIKEIIPIPETPSAGGSAGG [r6_548_TrMRF] | 7.8 ± 0.272 | 8.72 ± 0.711 | 9.98 ± 0.272
SAGGSAGGLKPGEEWLILFRIDIEIEPMPPNMSPDMAKRFPNMYHIEVKIDILIIPAEDLKELFSAGGSAGG [r6_831_TrROS] | 13.3 ± 0.544 | 14.7 ± 0.544 | 15.6 ± 0.176
SAGGSAGGMARVLRVEPAEGDDTFYVEVEFYDPATGEVTLGRFRIPADRPDLATNIPADSWVVLSAGGSAGG [r6_978_TrMRF] | 2.76 ± 0.167 | 5.21 ± 0.192 | 6.52 ± 0.247
SAGGSAGGMEIRIEKDENGFLRLKVINKKTKKETEIEIPVEDEDALKKLLDAGVERVEIEPLPPSAGGSAGG [r6_639_TrROS_Hall] | 1.67 ± 0.544 | 4.77 ± 0.879 | 5.6 ± 0.335
SAGGSAGGMEKYKVTITIERPDPNNPDVKTTEVTEVVLTPEEIEKLKKELAPTGYRVEITVIDESAGGSAGG [r6_857_JUSTAS] | 10.9 ± 0.586 | 10.2 ± 0.628 | 10.5 ± 0.36
SAGGSAGGMEVPPDQRVLVLDVEGTPEAIEAFAEELVRRGFDKPVAVVAVDPETGKVTIVVPEDSAGGSAGG [r6_652_TrMRF] | 3.23 ± 0.209 | 4.53 ± 0.46 | 4.45 ± 0.418
SAGGSAGGMFYVVRLEGPDGPLRTLVRPAESLEEARAFAEALAPEGARVTVEPLEEEEAERLLGSAGGSAGG [r6_267_TrMRF] | 4.47 ± 0.238 | 8.92 ± 0.272 | 10.6 ± 0.222
SAGGSAGGMHINAPGSIEELEEKLGGPIAEATLEGPGTFTLTLENGVPITVSFDDPEQLEELIESAGGSAGG [r6_13_TrMRF] | 2.19 ± 0.247 | 1.62 ± 0.753 | 1.02 ± 0.669
SAGGSAGGMIEVESFPEIGYILVKAKSEKPEEIAKEVLEKFNVKEAVVFEDPEKPYVYILAKIDSAGGSAGG [r6_661_TrMRF] | 4.06 ± 0.368 | 4.71 ± 0.879 | 5.28 ± 0.879
SAGGSAGGMILLETEEGEPKAVILFELRDPLFGGEIPLEFLEELAEEIKEKFPEIKHIELIGLPSAGGSAGG [r6_793_TrMRF] | 6.13 ± 0.197 | 5.47 ± 0.335 | 4.61 ± 0.126
